Laboratory results reported in US20190002511.

Tests used:
[1] = test system: avathrin (Amblyomma variegatum thrombin inhibitor)
avathrin (Amblyomma variegatum thrombin inhibitor), sequence (chain, as listed by the source): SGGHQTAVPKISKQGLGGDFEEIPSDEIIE

β-avathrin, sequence (chain, as listed by the source): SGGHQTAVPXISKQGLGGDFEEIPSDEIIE
avathrin K10R, sequence (chain, as listed by the source K10R): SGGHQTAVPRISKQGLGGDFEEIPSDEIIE
ultravariegin, sequence (chain, as listed by the source): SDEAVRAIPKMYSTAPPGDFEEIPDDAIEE

human α-thrombin (recombinant)
time to complete cleavage by thrombin (avathrin K10R): resulting in complete cleavage within 3 h
time to complete cleavage by thrombin (30:1 peptide to enzyme) [1]: avathrin was completely cleaved at ~10 h
time to complete cleavage by thrombin (ultravariegin): At 18 h, ultravariegin was completely cleaved
cleavage by thrombin (β-avathrin): it was not cleaved by thrombin for up to 72 h
